Measurements from publication PMC11352701.

Biological target: dFMRP (dFmr1-PD) (UniProt Q9NFU0 1-684)
Assay: EMSA

Sequence of dFMRP (dFmr1-PD) (Q9NFU0 whole entry): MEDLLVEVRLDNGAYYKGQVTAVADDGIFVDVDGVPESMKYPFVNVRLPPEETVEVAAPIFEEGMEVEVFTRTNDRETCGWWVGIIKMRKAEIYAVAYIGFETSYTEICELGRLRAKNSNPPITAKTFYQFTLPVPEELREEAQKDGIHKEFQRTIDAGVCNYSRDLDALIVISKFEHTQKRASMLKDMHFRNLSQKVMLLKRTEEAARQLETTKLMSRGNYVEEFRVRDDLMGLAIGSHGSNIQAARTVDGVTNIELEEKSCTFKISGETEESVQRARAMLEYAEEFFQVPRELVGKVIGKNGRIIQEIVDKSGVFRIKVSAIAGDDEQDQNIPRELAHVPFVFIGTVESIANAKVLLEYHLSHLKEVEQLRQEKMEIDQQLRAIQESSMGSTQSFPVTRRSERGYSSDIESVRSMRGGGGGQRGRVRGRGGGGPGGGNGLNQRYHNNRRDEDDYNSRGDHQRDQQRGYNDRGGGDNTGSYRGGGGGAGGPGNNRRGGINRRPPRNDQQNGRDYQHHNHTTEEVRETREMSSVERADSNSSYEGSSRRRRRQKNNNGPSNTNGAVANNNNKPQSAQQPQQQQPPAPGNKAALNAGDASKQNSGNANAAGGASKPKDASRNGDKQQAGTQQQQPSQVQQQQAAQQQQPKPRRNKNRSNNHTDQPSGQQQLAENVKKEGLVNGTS

AAAAAAAAAAAAAA (ssRNA) [A14 control RNA]
binding result: no binding
